Reference: patent US20070154905A1 (YEDA RESEARCH AND DEVELOPMENT, published 2007)
Positions count from the first letter of the chain named. In names and notes the source's numbering stands.

B1: MORT-1 protein (full-length) (other)
chain: VNQAPECRFGGGILGPLGKRRDLARASEPRTEGARRAGPQPRPLADPAMDPFLVLLHSVSSSLSSSELTELKFLCLGRVVKRKLERVQSGLDLFSMLLEQNDLEPGHTELLRELLASLRRHDLLRRVDDFEAGAAAGAAPGEEDLCAAFNVICDNVGKDWRRLARQLKVSDTKIDSIEDRYPRNLTERVRESLRIWKNTEKENATVAHLVGALRSCQMNLVADLVQEVQQARDLQNRSGAMSPMSWNSDASTSEAS
notes: Full-length construct; also called HF1; FADD
B2: MACHα1 mutant in which the catalytic cysteine Cys360 is replaced by Ser (enzyme)
chain: MDFSRNLYDIGEQLDSEDLASLKFLSLDYIPQRKQEPIKDALMLFQRLQEKRMLEESNLSFLKELLFRINRLDLLITYLNTRKEEMERELQTPGRAQISAYRVMLYQISEEVSRSELRSFKFLLQEEISKCKLDDDMNLLDIFIEMEKRVILGEGKLDILKRVCAQINKSLLKIINDYEEFSKERSSSLEGSPDEFSNGEELCGVMTISDSPREQDSESQTLDKVYQMKSKPRGYCLIINNHNFAKAREKVPKLHSIRDRNGTHLDAGALTTTFEELHFEIKPHDDCTVEQIYEILKIYQLMDHSNMDCFICCILSHGDKGIIYGTDGQEAPIYELTSQFTGLKCPSLAGKPKVFFIQASQGDNYQKGIPVETDSEEQPYLEMDLSSPQTRYIPDEADFLLGMATVNNCVSYRNPAEGTWYIQSLCQSLRERCPRGDDILTILTEVNYEVSNKDDKKNMGKQMPQPTFTLRKKLVFPSD
notes: Gal4 fusion in two-hybrid tests; also called MACHα1 (C360S); MACHα (C360S)
B3: intracellular domain of human p55 TNF receptor (residues 206-426) (receptor, UniProt P19438 235-455, looked up)
chain: RYQRWKSKLYSIVCGKSTPEKEGELEGTTTKPLAPNPSFSPTPGFTPTLGFSPVPSSTFTSSSTYTPGDCPNFAAPRREVAPPYQGADPILATALASDPIPNPLQKWEDSAHKPQSLDTDDPATLYAVVENVPPLRWKEFVRRLGLSDHEIDRLELQNGRCLREAQYSMLATWRRRTPRREATLELLGRVLRDMDLLGCLEDIEEALCGPAALPPAPSLLR
notes: range 206-426; Gal4 fusion in two-hybrid tests; also called p55-IC; p55 IC
B4: MACH (construct with the full-length MACH cDNA) (other)
chain: MDFSRNLYDIGEQLDSEDLASLKFLSLDYIPQRKQEPIKDALMLFQRLQEKRMLEESNLSFLKELLFRINRLDLLITYLNTRKEEMERELQTPGRAQISAYRVMLYQISEEVSRSELRSFKFLLQEEISKCKLDDDMNLLDIFIEMEKRVILGEGKLDILKRVCAQINKSLLKIINDYEEFSKERSSSLEGSPDEFSNDFGQSLPNEKQTSGILSDHQQSQFCKSTGESAQTSQH
notes: also called MORT-2
B5: MACHβ1 (ORF-B of MACH) (other)
chain: B4 chain
notes: Gal4 fusion in two-hybrid tests; also called MACH B; MACH ORF-B
B6: MORT-1 fragment, amino acids 1-117 (N-terminal part) (other)
chain: VNQAPECRFGGGILGPLGKRRDLARASEPRTEGARRAGPQPRPLADPAMDPFLVLLHSVSSSLSSSELTELKFLCLGRVVKRKLERVQSGLDLFSMLLEQNDLEPGHTELLRELLAS
notes: Gal4 fusion in two-hybrid tests; also called MORT-1 head; MORT 'head'

Experiments:
MACHβ1 (ORF-B of MACH) = target: B5; test: yeast two-hybrid, β-galactosidase filter assay
Protocol: (§1) The yeast two-hybrid test was further applied to evaluate the specificity of binding of MACH to MORT-1, in particular, to define the region in MORT-1 to which MACH binds, as well as to determine which of the MACH ORFs interacts with MORT-1, the procedures being as set forth herein above in Examples 1 and 2. Briefly, various MORT-1 and MACH constructs were prepared for testing the interaction of the proteins encoded by the Gal4 DNA-binding domain and activation domain constructs within transfected SFY526 yeast cells as assessed by the β-galactosidase expression filter assay. The DNA-binding domain constructs were prepared in pGBT9 vectors and the activation domain constructs were prepared in pGAD-GM vectors. For the activation domain constructs, the full-length MACH cDNA was used (MACH), as was a construct encoding only the ORF-B (MACH B) region. Control activation domain constructs were those containing the full-length MORT-1 coding sequence (MORT 1, positive control) and those having no inserts, i.e., “empty” vectors (pGAD-GM). […] Control DNA-binding domain constructs, which were constructed to determine also the specificity of the MACH binding, included constructs encoding lamin (Lamin), residues 287-461 of the intracellular domain of the human p75 TNF-R (human p75 IC), cyclic D (cycD), SNF1, residues 206-426 of the intracellular domain of the human p55 TNF-R (human p55 IC), the ‘death domain’ region of the intracellular domain of the human Fas-R (human Fas DD), residues 216-277 of the intracellular domain of the human CD40 (human CD40 IC), vectors without insert or “empty” pGBT9 vectors (pGBT9, negative control), and a construct encoding the ORF-B region of MACH (MACH B). In the assay, the development of color was determined, where the greater the color development, the greater the interaction between the constructs encoded by the DNA-binding domain and activation domain; Color development was depicted by symbols, where “+++” and “+” indicate the development of a strong color within 30 and 90 min. of the assay, respectively, and “−−−” indicates the lack of development of color within 24 hrs. of the assay. In cases where interactions were not tested, no symbol was indicated.

[1] = target: the molecule itself; test: yeast two-hybrid, β-galactosidase filter assay
Protocol: as §1

[2] = target: T1, 'empty' Gal4 DNA-binding-domain vector pGBT9 (UniProt P04386 1-147); test: yeast two-hybrid, β-galactosidase test (FIG. 1); empty pGBT9 is named as a negative control in paragraph 206
T1 construct: Negative control

[3] = target: B3; test: yeast two-hybrid, β-galactosidase test (FIG. 1)
[4] = target: T2, mouse Fas-IC with replacement mutation I225A (mouse, UniProt P25446 187-327); test: yeast two-hybrid, β-galactosidase test (FIG. 1)
T2 construct: domain: intracellular domain
T2 sequence (looked up): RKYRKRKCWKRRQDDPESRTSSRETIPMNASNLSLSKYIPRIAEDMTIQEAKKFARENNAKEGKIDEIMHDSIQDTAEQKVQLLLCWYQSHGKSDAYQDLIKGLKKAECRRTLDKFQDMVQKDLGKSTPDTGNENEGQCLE

[5] = target: T3, mouse Fas-IC with replacement mutation I225N (mouse, UniProt P25446 187-327); test: yeast two-hybrid, β-galactosidase test (FIG. 1)
T3 construct: domain: intracellular domain; The text calls the change 'Ile to Leu' but labels it I225N; also called lpr^eg mutation
T3 sequence (looked up): T2 sequence (looked up) with A60N

[6] = target: T4, MORT-1 fragment, amino acids 130-245 (C-terminal part with the death domain homology region) (human, UniProt Q13158 82-197); test: yeast two-hybrid, β-galactosidase test (FIG. 1)
T4 construct: Gal4 fusion in two-hybrid tests; expressed untagged in HeLa cells for the cytotoxicity test; also called MORT-1 DD; MORT-1 dd
T4 sequence: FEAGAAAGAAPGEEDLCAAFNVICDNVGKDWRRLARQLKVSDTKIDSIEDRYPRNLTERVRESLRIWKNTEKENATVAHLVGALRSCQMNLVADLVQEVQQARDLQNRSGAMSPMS

yeast two-hybrid = target: the molecule itself; test: yeast two-hybrid
Protocol: (§2) In FIG. 5, there is shown the results of the interaction of MORT-1 and MACH within transfected yeast cells. Briefly, MORT-1 and MACHβ1 and their deletion constructs, as well as MACHα1, a MACHα1 mutant in which the catalytic cysteine Cys₃₆₀ is replaced by Ser (MACHα1 (C360S)) and the intracellular domain of human FAS-R (Fas-IC), were expressed within transfected SFY526 yeast in Gal4 DNA binding domain and activation domain constructs (pGBT9 and pGAD-GH). Their interaction was assessed by a β-galactosidase expression filter assay as described in Boldin et al (1995b). The results are presented in terms of the time required for the development of strong color. […] None of the inserts examined interacted with a number of tested negative controls, including the intracellular domains of human p55 TNF receptor, p75 TNF receptor and CD40, and lamin, cyclin D and ‘empty’ Gal4 vectors. MACHβ1 was cloned by two hybrid screening of a Gal4 AD-tagged human B cell library (Durfee et al, 1993) for proteins that bind to MORT-1, using the HF7c Yeast reporter strain. Except where otherwise indicated, all experimental procedures for the findings presented are as described above (see also Boldin et al, 1995). […] MACHβ1 also self-associated in the transfected yeast. […] Expression of MACHβ1 molecules in mammalian cells yielded a 34 kDa protein that bound to MORT-1 molecules co-expressed with it. It was also able to bind to a GST-MORT-1 fusion protein in vitro.

MACHα1 [7] = target: T5, MACHα1 (human, UniProt Q14790 1-479); test: yeast two-hybrid, β-gal filter assay (FIG. 5)
T5 construct: Gal4 fusion in two-hybrid tests; also called wild-type MACHα1

[8] = target: B2; test: yeast two-hybrid, β-gal filter assay (FIG. 5)
[9] = target: B1; test: yeast two-hybrid, β-galactosidase filter assay
Protocol: as §1

[10] = target: B3; test: yeast two-hybrid, β-gal filter assay (FIG. 5)
MACHα1 [11] = target: T5, MACHα1; test: yeast two-hybrid
Protocol: as §2

[12] = target: B2; test: yeast two-hybrid
Protocol: as §2

[13] = target: the molecule itself; test: yeast two-hybrid, β-galactosidase test (FIG. 1)

T1 sequence (P04386 1-147 limits assumed): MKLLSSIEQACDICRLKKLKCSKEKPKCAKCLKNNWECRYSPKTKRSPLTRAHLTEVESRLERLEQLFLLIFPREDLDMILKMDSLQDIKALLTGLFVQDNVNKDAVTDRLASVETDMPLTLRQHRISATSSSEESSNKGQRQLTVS

Binder: B1
- time to development of strong color (beta-galactosidase filter assay, yeast two-hybrid) (MACHβ1 (ORF-B of MACH)): 30 to 90 min
- time to development of strong color (beta-galactosidase filter assay, yeast two-hybrid) [1]: ≤ 30 min
- binding result [2]: no binding
- binding result [3]: no binding
- binding result [4]: no binding
- binding result [5]: no binding
- binding result [6]: no binding

Binder: B2
- binding result (yeast two-hybrid): binds

Binder: B3
- binding result (MACHα1 [7]): no binding
- binding result [8]: no binding

Binder: B4
- time to development of strong color (beta-galactosidase filter assay, yeast two-hybrid) [9]: ≤ 30 min

Binder: B5
- binding result [10]: no binding
- time to development of strong color (beta-galactosidase filter assay, yeast two-hybrid) [1]: 30 to 90 min
- time to development of strong color (beta-galactosidase filter assay, yeast two-hybrid) [9]: ≤ 30 min
- binding result (MACHα1 [11]): binds
- binding result [12]: binds

Binder: B6
- binding result [13]: no binding
